Laboratory results published in patent publication US20120172306A1, “Use of HASF as a Protective Agent Against Ischemic Tissue Damage” (Duke University, priority 2009, published 2012).

Legend:
[1] = system: H9C2 cardiac myoblasts; test: Annexin V/PI staining of H2O2 induced apoptosis; assay type: cell-based, rat; settings: 10 nM, 30 min pre-incubation, 100 μM H2O2 2 h
Method: FIG. 2A is a bar graph showing % apoptosis. H9C2 cardiac myoblasts were pre-incubated ±10 nM of HASF recombinant protein for 30 min, and then challenged with 100 μM of H2O2 for 2 h. Apoptosis was quantified on a flow cytometer with Annexin V and Propidium Iodine (PI) staining. The sum of Annexin V positive cells+Annexin V/PI double positive cells is presented as percentage (%) of total cells. Human recombinant IGF protein was used as a positive control.
Rat cardiac myoblasts-H9C2 cells were obtained from ATCC and cultured in DMEM medium containing 10% of FBS, supplemented with 2 mM of L-glutamine, 100 U/ml of penicillin and 100 μg/ml of streptomycin (Invitrogen). Cells were seeded one day before at 1×10^5/well in 6-well plates. The following day, the cells were treated for 30 min with 10 nM of HASF the recombinant protein, the MBP or PBS were used as controls. Then the cells were challenged with 100 μM of H2O2 for 2 h. The attached and floating cells were collected. H2O2 induced apoptosis was then analyzed on a flow cytometer for Annexin V/Propidium Iodine double staining with the Vybrant Apoptosis Assay Kit #2 (Invitrogen).

[2] = system: primary embryonic rat neurons; test: Caspase 9 assay in H2O2 challenged primary neurons; assay type: cell-based; settings: H2O2 (50 μM) 30 min
Method: FIG. 2E is a bar graph showing caspase activity in primary neurons. Embryonic rat neuronal cells were pre-incubated ±100 nM of HASF recombinant protein for 30 min, and then challenged with 200 μM of H2O2 […]. Apoptosis was determined by caspase 9 levels. The results from two independents experiments are shown. ** P<0.01. Data are presented as means±standard deviation of triplicates.
FIG. 4E is a bar graph showing relative caspase activity in primary neurons. Apoptosis as determined by detection of Caspase-9 activity on primary neuron pre-treated with 178 μM PKC translocation inhibitor peptide for 10 minutes and then with 100 nM of HASF for 30 minutes. Thereafter, cells were challenged with 200 μM H2O2 for 3 hours. All samples were measured in replicas N-4 and the experiments was repeated twice. *P<0.05 vs. non-HASF treated cells.
Embryonic rat cortex tissue was purchased from Neuromics (Edina, Minn.). Primary neurons were isolated, cultured on poly-D-lysine coated glass slides according to provided instructions and allowed to grow for 5 days in complete neurobasal media. Cells were treated with PKC-epsilon inhibitor and recombinant protein HASF as described above for cardiomyocytes). For induction of stress the cells were challenged with H202 (50 μM) for 30 min followed by 3 hours of recovery at 37° C. […]

[3] = system: PKC, Raf, ERK 1/2, PDK1 phosphorylation in adult rat cardiomyocytes; test: Western blot analysis of signaling protein phosphorylation (PKC/ERK pathway); assay type: cell-based
Method: FIG. 3A is a photograph of an electrophoretic gel. HASF activates the PKC pathway. A. Western blots analysis for various signaling proteins. Serum-starved adult rat cardiomyocytes were stimulated with 100 nM HASF recombinant protein for various time courses. Cell lysate was collected and the proteins were resolved by SDS-PAGE. Insulin from bovine pancreas was used as a positive control. min: minutes of treatment.
FIG. 3B is a photograph of an immunoblot. Serum-starved adult rat cardiomyocytes were pre-treated with 3 μM PKC inhibitors BIM, Gö6976, or Gö6983 for 30 minutes, then stimulated with 100 nM HASF recombinant protein for 5-10 min and cells were harvested. Total cell lysates were used to analyze the levels of ERK1/2 phosphorylation by western blot analysis.
FIG. 4A is a photograph of an immunoblot. Western blot analysis for PKC E and PKC delta phosphorylation on total cell lysates from serum-starved adult rat cardiomyocytes stimulated with 100 nM HASF recombinant protein at 5 and 30 min. HASF b1 and b2 represent different batches of recombinant protein. PMA was used as positive control.
FIG. 4B is a photograph of an immunoblot. Western blot analysis for ERK1/2 phosphorylation on total cell lysates from adult rat cardiomyocytes pre-treated with 10 pM PKC epsilon translocation inhibitor peptide for 20 min, then 100 nM HASF recombinant protein was added for 5 min or 10 min.
FIGS. 8A-B are photographs of immunoblots. Western blot analysis for PKC a/b and PKC theta phosphorylation on total cell lysates from serum-starved adult rat cardiomyocytes stimulated with 100 nM HASF recombinant protein for the indicated times. HASF batch 1 and 2 represent different batches of recombinant protein. PMA was used as positive control.
Rabbit polyclonal antibodies for phospho-pan PKC, phospho-ERK1/2, phospho-raf, phosphor-PDK1, total Akt were obtained from Cell Signaling Tech. Rabbit polyclonal antibody for phospho-PKC epsilon, phospho-Bad, and GAPDH was obtained from Abeam. HRP-conjugated goat anti-rabbit secondary antibody was obtained from Cell Signaling Tech.

[4] = system: rat myocardial infarction; test: In vivo ischemia/reperfusion injury, infarct size (TTC/Evans Blue); settings: 1 μg intramyocardial injection, 30 min ischemia, 24 h reperfusion
Method: FIG. 5A is a series of photographs and a bar graph showing infarct area. Rats were randomly divided into PBS control group and HASF injected group, n=10 for each group. The reperfusion injury model was achieved by 30 min coronary ligation with the immediate injection of vehicle PBScontrol or 1 μg of […] recombinant protein into the myocardium area below ligation suture, followed by loosening of the ligation suture to achieve reperfusion injury. […] The mean of % of infarct area for all sections of each heart was calculated blindly for comparisons using ImageJ computer software. Representative photos from each group are shown.
Female Sprague-Dawley rats were used for all in vivo experiments. A midsternal thoracotomy was performed to expose the anterior surface of the heart after anesthesia. […]
For analysis of infarct size, 24 h after reperfusion, the LAD was re-ligated and ˜300 μl of 1% Evans Blue in PBS (pH 7.4) was retrogradely infused into the heart in a 2-3 min period to delineate the non-ischemic area. […] Area at risk (AAR) was calculated as the left ventricular total area excluding Evans Blue dye positive area, and % infarct area was calculated as the % of infarct area/AAR. The mean of % of infarct area for all sections of each heart was calculated blindly for comparisons using ImageJ computer software, with 10 rats in each group.

[5] = 100 nM, within 5-10 minutes of treatment

B1: HASF: Hypoxia regulated Akt MSC Factor, secreted protein encoded by C3orf58; recombinant human protein without N-signal sequence, SEQ ID NO:1 or 2 (protein, UniProt Q8NDZ4 36-430, looked up)
Divergent protein kinase …: LASWQRNELTDRRFLQLNKCPACFGTSWCRRFLNGQVVFEAWGRLRLLDFLNVKNVYFAQYGEPREGGRRRVVLKRLGSQRELAQLDQSICKRATGRPRCDLLQAMPRTEFARLNGDVRLLTPEAVEGWSDLVHCPSQRLLDRLVRRYAETKDSGSFLLRNLKDSERMQLLLTLAFNPEPLVLQSFPSDEGWPFAKYLGACGRMVAVNYVGEELWSYFNAPWEKRVDLAWQLMEIAEQLTNNDFEFALYLLDVSFDNFAVGPRDGKVIIVDAENVLVADKRLIRQNKPENWDVWYESKFDDCDKEACLSFSKEILCARATVDHNYYAVCQNLLSRHATWRGTSGGLLHDPPSEIAKDGRLEALLDECANPKKRYGRFQAAKELREYLAQLSNNVR
modifications: 6xHis tag
B1 was tested, and the “decrease of H2O2 induced apoptosis (Annexin V/PI staining)” value [1] was about 50%, the “attenuation of Caspase 9 levels” value ([2]; 30 min pretreatment, P<0.05) was 20-40% and the “Caspase 9 levels in challenged neuronal cells” value ([2]; HASF 30 min) was “significantly reduced”. For the same molecule, the “activity (phosphorylation) of the other PKC isoforms tested (PKC α/β, σ, σ/λ, θ)” value ([3]; 100 nM HASF) was “did not affect”, the “phosphorylation of PKCe” value ([3]; 100 nM HASF, 5 and 30 min) was “increased the phosphorylation of PKCe selectively” and the “phosphorylation of PDK1” value ([3]; 100 nM, 0-60 minutes) was “not increased”. For the same molecule, the “phosphorylation of ERK 1/2” value [3, 5] was “increased dramatically”, the “phosphorylation of PKC” value [3, 5] was “increased dramatically” and the “phosphorylation of Raf” value [3, 5] was “increased dramatically”. The “reduction in the infarct size” value [4] was about 58%.
